This note sets out measurements from CN113135995A (SHANGHAI INST OF BIOLOGICAL PRODUCTS CO LTD, dated 2021).

Where a chain is given by its changes, count along the chain named.

In test [1] the target is T1, HER3胞外区重组蛋白 (recombinant HER3 extracellular domain protein, expressed in CHO cells) (human, UniProt P21860 20-643).
T1 construct: also called HER3蛋白
Put plainly: ProteOn XPR36 SPR; antibody captured by goat anti-human IgG Fc on GLM chip, HER3 protein 0.625-10 nM as analyte.

The target in test [2] is T1, HER3胞外区重组蛋白 (recombinant HER3 …). Put plainly: ProteOn XPR36 SPR, ratio of KD values.
For test [3], the target named is 细胞表面HER3分子 (HER3 on the surface of human tumour cells) (human, UniProt P21860 20-1342). Put plainly: cell-based or functional assay.
Chain of 细胞表面HER3分子 (HER3 on the surface of human tumour cells) (P21860 20-1342 limits assumed): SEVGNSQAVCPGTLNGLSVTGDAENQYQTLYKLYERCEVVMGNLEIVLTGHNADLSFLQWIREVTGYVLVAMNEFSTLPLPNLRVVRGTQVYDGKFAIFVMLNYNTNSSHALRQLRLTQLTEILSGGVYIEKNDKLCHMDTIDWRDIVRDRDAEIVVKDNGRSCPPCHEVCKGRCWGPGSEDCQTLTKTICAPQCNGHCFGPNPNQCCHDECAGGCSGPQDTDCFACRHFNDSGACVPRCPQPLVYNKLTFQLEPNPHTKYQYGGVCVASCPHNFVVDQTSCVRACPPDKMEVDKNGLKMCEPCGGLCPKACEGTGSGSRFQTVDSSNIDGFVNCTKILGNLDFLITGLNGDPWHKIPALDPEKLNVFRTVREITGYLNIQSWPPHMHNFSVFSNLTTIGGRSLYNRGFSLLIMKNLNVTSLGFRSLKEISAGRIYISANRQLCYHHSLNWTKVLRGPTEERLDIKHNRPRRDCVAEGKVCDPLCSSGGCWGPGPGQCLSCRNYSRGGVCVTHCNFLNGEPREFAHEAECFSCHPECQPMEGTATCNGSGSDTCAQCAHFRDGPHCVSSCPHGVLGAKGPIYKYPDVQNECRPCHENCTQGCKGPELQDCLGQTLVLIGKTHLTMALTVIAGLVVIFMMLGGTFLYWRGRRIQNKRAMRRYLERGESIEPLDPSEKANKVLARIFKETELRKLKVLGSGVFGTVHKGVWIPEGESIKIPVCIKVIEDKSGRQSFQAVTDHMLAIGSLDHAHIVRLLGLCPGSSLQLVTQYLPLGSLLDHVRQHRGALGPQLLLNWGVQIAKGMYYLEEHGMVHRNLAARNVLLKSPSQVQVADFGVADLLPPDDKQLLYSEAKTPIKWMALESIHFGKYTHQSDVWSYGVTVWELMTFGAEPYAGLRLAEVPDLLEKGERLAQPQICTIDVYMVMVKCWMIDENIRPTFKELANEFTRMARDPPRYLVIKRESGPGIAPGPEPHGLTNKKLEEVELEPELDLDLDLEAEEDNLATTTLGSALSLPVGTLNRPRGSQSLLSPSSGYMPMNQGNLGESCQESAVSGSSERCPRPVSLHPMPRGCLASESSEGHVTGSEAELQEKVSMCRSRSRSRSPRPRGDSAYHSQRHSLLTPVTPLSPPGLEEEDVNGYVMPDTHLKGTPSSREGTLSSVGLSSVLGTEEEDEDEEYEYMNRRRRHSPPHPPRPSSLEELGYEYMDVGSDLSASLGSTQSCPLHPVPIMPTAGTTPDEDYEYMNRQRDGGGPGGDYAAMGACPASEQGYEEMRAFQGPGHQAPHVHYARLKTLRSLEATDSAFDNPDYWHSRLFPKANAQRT
Test [4] addresses T2, hGH标签的HER3胞外区蛋白 (hGH-tagged HER3 extracellular domain protein) (human, UniProt P21860 20-643).
T2 construct: also called HER3分子; not shown: hGH tag
Put plainly: blocking ELISA: HRG coated, hGH-tagged HER3 ECD 1 ug/ml, antibody from 2 ug/ml in 1:3 steps, HRP anti-hGH detection. (An ELISA detects its analyte on a solid surface through an enzyme-linked reagent.)

T1 sequence (P21860 20-643 limits assumed): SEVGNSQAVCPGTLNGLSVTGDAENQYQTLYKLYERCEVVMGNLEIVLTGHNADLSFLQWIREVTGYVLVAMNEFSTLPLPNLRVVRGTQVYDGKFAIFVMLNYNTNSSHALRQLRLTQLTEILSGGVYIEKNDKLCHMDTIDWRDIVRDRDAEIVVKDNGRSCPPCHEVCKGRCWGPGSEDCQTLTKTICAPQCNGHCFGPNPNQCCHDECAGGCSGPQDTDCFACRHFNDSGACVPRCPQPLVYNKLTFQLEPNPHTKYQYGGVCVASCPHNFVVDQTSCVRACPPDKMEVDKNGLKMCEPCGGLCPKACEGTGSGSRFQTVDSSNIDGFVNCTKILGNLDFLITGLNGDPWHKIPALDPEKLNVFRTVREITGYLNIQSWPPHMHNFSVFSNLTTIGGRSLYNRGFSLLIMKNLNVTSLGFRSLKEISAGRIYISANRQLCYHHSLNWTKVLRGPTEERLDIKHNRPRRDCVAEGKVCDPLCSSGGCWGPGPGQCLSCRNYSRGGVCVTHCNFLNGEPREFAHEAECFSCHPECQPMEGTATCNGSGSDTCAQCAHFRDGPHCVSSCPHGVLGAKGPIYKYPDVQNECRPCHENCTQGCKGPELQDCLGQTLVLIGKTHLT
T2 sequence (P21860 20-643): as the sequence (P21860 20-643 limits assumed) above

B1: hu1044Y抗体 (optimised humanized anti-HER3 antibody hu1044Y) (antibody, human IgG1, kappa, V domains shown)
VH: QVQLVQSGAEVKKPGSSVKVSCKASGYTFSNYWIDWVKQAPGQGLEWMGEILPGSGGTDYNEKFKGRVTITADTSTSTAYMELSSLRSEDTAVYYCARDDYDVFAYWGQGTLVTVSS
VL: DIVMTQSPGTLSLSPGERATLSCRSSKSLLHSNGITYLYWYQQKPGQAPRLLIYQMSNLASGIPDRFSSSGSGTDFTLTISRLEPEDFAVYYCAQNLELPWTFGQGTKVEIKR
notes: hu1044 with heavy chain position 27 changed from Gly to Tyr
As a reminder, the Kd is the constant that tells how readily two partners part at equilibrium. As for B1, the Kd in test [1] worked out at 0.232 nM. Moreover, the “fold increase in affinity against hu1044” value in test [2] is ~2 倍 (fold).

B2: hu1044抗体 (humanized anti-HER3 monoclonal antibody hu1044) (antibody, V domains shown)
VH: B1 VH with Y27G
VL: B1 VL
On to B2, for which, in test [1], the Kd stood at 0.442 nM.

B3: hu1044-7Y抗体 (optimised humanized anti-HER3 antibody hu1044-7Y) (antibody, human IgG1, kappa, V domains shown)
VH: B1 VH with K38R, R67K, V68A
VL: B1 VL with I63V
notes: hu1044-7 with heavy chain position 27 changed from Gly to Tyr; In the flow cytometry assays it was labelled with Dylight 488 NHS ester
The IC50 is the concentration at which inhibition is half-maximal. Read a low IC50 as greater potency. For the molecule B3, the “HRG刺激的乳腺癌MCF-7细胞增殖 IC50 (CCK-8)” value in test [3] is 0.0133 µg/mL. In test [1], the Kd was found to be 0.117 nM. Further, in test [4], the IC50 is ~0.1 µg/mL. For the same molecule, the “fold increase in affinity against hu1044-7” value in test [2] is ~3 倍 (fold).

B4: hu1044-7抗体 (humanized anti-HER3 antibody variant hu1044-7) (antibody, V domains shown)
VH: B1 VH with Y27G, K38R, R67K, V68A
VL: B1 VL with I63V
As to B4, in test [1], the dissociation constant Kd turned out to be 0.375 nM.
